± gives the standard deviation.
Assay: protein stability index of a GFP-peptide fusion (GPS, HEK-293T) (PSI 1-6); higher = more stable
[1] = treatment: DMSO, c terminus: a fixed tail appended
[2] = treatment: MLN4924 1 uM, 8 h, c terminus: a fixed tail appended
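Note: 24-mer peptide tiles fused after GFP, lentivirally expressed, FACS-sorted into six equal bins by GFP/DsRed ratio, decoded by Illumina sequencing, PSI is the read-weighted mean bin number.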

Row | Sequence | protein stability index [1] | protein stability index [2] | protein stability index (treatment: DMSO, c terminus: native) | protein stability index (treatment: MLN4924 1 uM, 8 h, c terminus: native)
1 | SEEGSWAQTLAYGDMNHEWIGNEW [PPFIA4] | 3.89 ± 0.41 | 3.8 ± 0.28 | – | –
2 | KGAVNLHMEEEVEDFLLKKPIVPT [CDC25A] | 4.14 ± 0.31 | 4.13 ± 0.2 | – | –
3 | GSGDSGDSSEEESHRVVLRPRGKE [LYSMD4] | 5.55 ± 0.19 | 5.35 ± 0.12 | – | –
4 | KAREKDGKGRTASPINSPARGTPS [FSD1] | 4.92 ± 0.11 | 5.19 ± 0.27 | – | –
5 | GVPVQPVLIRYPNSLDTTSWAWRG [LPCAT4] | 2.28 ± 0.26 | 2.34 ± 0.31 | – | –
6 | VERILARGENLEHLRNKTEDLEAT [VAMP8] | 5.33 ± 0.2 | 5.37 ± 0.14 | – | –
7 | SNYSLPPPLPTYHVLLEGEGLGQS [TRIM29] | 3.67 ± 0.23 | 3.68 ± 0.22 | – | –
8 | YLTVKVWDLNMENRPIETYQVHDY [PPP2R2B] | 2.25 ± 0.032 | 2.31 ± 0.2 | – | –
9 | AKDMKKAVAHMKYMGKGSMTGLAL [MATN2] | – | 2.37 ± 0.3 | – | –
10 | AQGFAADVRLMFSNCYKYNPPDHE [BRD3] | 2.99 ± 0.31 | 2.8 ± 0.39 | – | –
11 | NRGNSAGGLQHRVTAKTAPDVLRT [PTPRD] | 3.98 ± 0.47 | 3.81 ± 0.31 | – | –
12 | ATCRLCGEQVGRGPGFHAGTSALW [ZBED3] | 2.2 ± 0.57 | 2.39 ± 0.12 | – | –
13 | DQDPSVLYFSIHRYEQGRFWPHLK [HDAC6] | 2.25 ± 0.41 | 2.16 ± 0.28 | – | –
14 | ISSIGQVQSYMEHYCNSSTDRRVL [SPACA9] | 3.23 ± 0.33 | 3.25 ± 0.36 | – | –
15 | NKVKVLDAPVPDCLGVHCDFHQGL [FSD1] | 3.26 ± 0.078 | 3.43 ± 0.24 | – | –
16 | EPNNIVVLLQTSPYHVDSLLQLSD [TCF25] | 2.44 ± 0.3 | 2.11 ± 0.26 | – | –
17 | AAVSRKKKRRMGTYSLVPKKKTKV [EHMT1] | 4.29 ± 0.32 | 4.32 ± 0.24 | – | –
18 | AQNAVRLHYGLPVVVKLLHPPSHW [CTNNB1] | 2.32 ± 0.23 | 2.23 ± 0.048 | – | –
19 | ASSVHLKSESSLPHQTSKMENLPG | 4.8 ± 0.26 | 4.85 ± 0.49 | – | –
20 | QPVDAIKLNLPDYHKIIKNPMDMG [BRD3] | 3.12 ± 0.35 | 2.92 ± 0.23 | – | –
21 | LRTRGRTRGWVQTLARMSRRTRGP [C6orf223] | 3.6 ± 0.23 | 3.97 ± 0.27 | – | –
22 | AAENEFVLLKKDVDAAYANKVELQ [KRT71] | 4.7 ± 0.21 | 4.54 ± 0.39 | – | –
23 | TGGPDACLRCWDQRTIMKPLEYQF [TLE6] | 2.29 ± 0.17 | 2.74 ± 0.27 | – | –

Row | Sequence | protein stability index [1] | protein stability index [2] | protein stability index (treatment: DMSO, c terminus: native) | protein stability index (treatment: MLN4924 1 uM, 8 h, c terminus: native)
24 | KTPEEAYRALLSGSNPPYLPFRDA [CDC14A] | 3.27 ± 0.3 | 3.31 ± 0.25 | – | –
25 | EMETLETSTKTDSEEGSWAQTLAY [PPFIA4] | 5.04 ± 0.15 | 4.62 ± 0.069 | – | –
26 | SLIGHLQTLSPDMQGAYCTFPASV [DUSP5] | 2.07 ± 0.35 | 2.2 ± 0.38 | – | –
27 | RAYFMSDTREEKRFLGEGHHRVQE [CHGB] | 3.87 ± 0.28 | 3.89 ± 0.06 | – | –
28 | SHRAAGSGVSDYDYLDLDKMSLYS [TRIM9] | 3.4 ± 0.21 | 3.44 ± 0.17 | – | –
29 | LPNYNWNSFGLRFGKREAAPGNHG [KISS1] | 3.14 ± 0.36 | 3.36 ± 0.42 | – | –
30 | EYRQKHGVPPLKLCKNLNREAQQY [GLIPR2] | 3.42 ± 0.16 | 3.4 ± 0.28 | – | –
31 | KTPYDTSRRQEKSAGDADPENGEI [ELOA2] | 5.3 ± 0.22 | 5.51 ± 0.17 | – | –
32 | VYTGKLLLNLVDHTEVVRDLTFAP [WSB1] | 2.2 ± 0.28 | 2.36 ± 0.35 | – | –
33 | RDLKPENILVTSGGTVKLADFGLA [CDK4] | 3.31 ± 0.44 | 3.33 ± 0.27 | – | –
34 | EREPVRGQCLDSTDQLEFTVEPRL [RTN2] | 4.78 ± 0.2 | 4.71 ± 0.2 | – | –
35 | LYGALNPQYEFKEAAGSFTSSLAQ [IRX6] | 2.64 ± 0.17 | 2.55 ± 0.27 | – | –
36 | VPKDQRLQAIKAAIMLLPDENREV [DLC1] | 3.82 ± 0.18 | 3.85 ± 0.42 | – | –
37 | IKIVLINSFGAILQGSLFGLAGLL [SLC29A1] | 2.72 ± 0.32 | 3.25 ± 0.2 | – | –
38 | ITSSVFPSASLGKASSRKPFGILS [FBXO34] | 2.65 ± 0.12 | 2.67 ± 0.21 | – | –
39 | AMRAGVLADDHLIEVNGENVEDAS [PDZK1] | 5.41 ± 0.23 | 5.3 ± 0.11 | – | –
40 | SEGRRVSFGVDEEERVRVLQGVRL [CHCHD6] | 4.38 ± 0.19 | 4.38 ± 0.3 | – | –
41 | LFVTVTAVNLSVSTLPSLREEEEQ [KCNG1] | 2.13 ± 0.34 | 2.18 ± 0.45 | – | –
42 | KSMAWCENSICVGFKRDYYLIRVD [VPS39] | 3 ± 1.3 | 2.39 ± 0.89 | – | –
43 | SPINMEDQERIKVERKRLRNRLAA [JUNB] | 4.48 ± 0.55 | 4.65 ± 0.087 | – | –
44 | AVGSGERRGGGPVFPAPVVGSGGA [ZBTB22] | 4.39 ± 0.19 | 4.45 ± 0.38 | – | –
45 | HRRDGKWQNVHFHCSGAPVAPLQ [CAMK2B] | – | – | 2.39 ± 0.31 | 2.6 ± 0.34
46 | SKQTEKDPGVQELEALIDTIQKQL [EFHC1] | 3.83 ± 0.28 | 3.86 ± 0.3 | – | –

Row | Sequence | protein stability index [1] | protein stability index [2] | protein stability index (treatment: DMSO, c terminus: native) | protein stability index (treatment: MLN4924 1 uM, 8 h, c terminus: native)
47 | RGPLNSDRSDYFAAWGARVFSFGK [TRIM43] | 2.79 ± 0.22 | 2.76 ± 0.22 | – | –
48 | VDWRRVSRLQEDPEGTENPLGVDE [SLA] | 4.46 ± 0.36 | – | – | –
49 | LSEVLAQPQGALAPPNCESDSKTG [DNAAF3] | 5.37 ± 0.14 | 5.52 ± 0.096 | – | –
50 | RFLVGMMNGGMSLVAFVLLNECVG [SLC22A15] | 3.25 ± 0.35 | 2.9 ± 0.38 | – | –
51 | RLASYLDKVRALEEANADLEVKIH [KRT15] | 2.33 ± 0.15 | 2.67 ± 0.22 | – | –
52 | RRKEEEVQQQKLAEERRRQNLQEE [FAF2] | 5.56 ± 0.18 | 5.45 ± 0.37 | – | –
53 | LSEGSSNEDEDLGPCEGPSKEDKD [SPANXN3] | 5.71 ± 0.31 | 5.37 ± 0.41 | – | –
54 | SPESSRGQCGENLAWASYDQTGKE [GLIPR2] | 4.8 ± 0.21 | 4.73 ± 0.27 | – | –
55 | GRRGWKKFYAVLKGTILYLQKDEY [PSD2] | 3 ± 0.4 | 3.32 ± 0.37 | – | –
56 | PTSPVQGTTPQISPSTLIGSLRTL [HDAC6] | 3.77 ± 0.22 | 3.79 ± 0.26 | – | –
57 | YDFMNSAFSPIVILTERVSLPFKP [MIA2] | 2.22 ± 0.62 | 2.17 ± 0.18 | – | –
58 | KIRLRCQKGIPPSLRGRAWQYLSG [TBC1D10A] | 2.21 ± 0.094 | 2.09 ± 0.23 | – | –
59 | TPLLMAARYGHLDMVEFLLEQCSA [FEM1C] | 2.28 ± 0.41 | 2.26 ± 0.24 | – | –
60 | PIIYFNDYWNLQKDYYPINESLAS [CLPTM1] | 2.71 ± 0.85 | 2.06 ± 0.2 | – | –
61 | ELFVREPTGRLPALVRWWNGIGAV [MYORG] | 2.26 ± 0.38 | 2.4 ± 0.41 | – | –
62 | TLFQTESPQSGSILTEETEVKGTL [PBXIP1] | 4.92 ± 0.17 | 4.7 ± 0.25 | – | –
63 | ARFAEKEELMLVHSLEYIDLMETT [HDAC6] | 2.66 ± 0.17 | 2.75 ± 0.38 | – | –
64 | DSCDRLTQSWSSQSSFNSLQRVPS [ETS1] | 3.99 ± 0.24 | 4.07 ± 0.23 | – | –
65 | VKKKKEEGVIDSSDKEIVAEAERL [EIF5] | 5.04 ± 0.59 | 5.46 ± 0.2 | – | –
66 | MALSNHYRSEDLLDVDTAAGGFQQ [FBXO3] | 4.03 ± 0.18 | 4.04 ± 0.13 | – | –
67 | CPTFRVSIARLEMGPDEYEEMEEE [FBXO3] | 4.7 ± 0.18 | 5.07 ± 0.21 | – | –
68 | FSASERLSLKRELSWYRGRRPRTA [HESX1] | 2.7 ± 0.28 | 3.22 ± 0.32 | – | –
69 | DLTSSSSDELSWIIELLEKDGMAF [ELF3] | 2.86 ± 0.34 | 3.19 ± 0.29 | – | –

Row | Sequence | protein stability index [1] | protein stability index [2] | protein stability index (treatment: DMSO, c terminus: native) | protein stability index (treatment: MLN4924 1 uM, 8 h, c terminus: native)
70 | PTLWTEQVKSRQNKTNKNSVSSCD [SMOC2] | 4.81 ± 0.28 | 4.84 ± 0.12 | – | –
71 | IVLGPYHVKFRSLSMVSECLFSLI [MCOLN1] | 2.94 ± 0.68 | 2.78 ± 0.42 | – | –
72 | NHILECEFYLLELMDCCLIVYHPY [CCNC] | 3.12 ± 1 | 2.78 ± 0.95 | – | –
73 | SEGEAMEICSEPVAASPAPAGERR [ZNF511] | 5.38 ± 0.28 | 5.22 ± 0.27 | – | –
74 | ALWCAAGAGHFEVVKLLVSHGANV [FEM1B] | 2.51 ± 1.3 | 2.37 ± 0.26 | – | –
75 | VHRDLKPENLLLASKCKGAAVKLA [CAMK2B] | 2.83 ± 0.38 | 2.75 ± 0.25 | – | –
76 | FVGDLSPEITTEDIKAAFAPFGRI [TIA1] | 3.11 ± 1 | 2.7 ± 0.18 | – | –
77 | TRQLSEENANLQEYVEKETQEKKR [MTUS2] | 5.33 ± 0.14 | 5.56 ± 0.12 | – | –
78 | AKFWPRRRFNFFVLENNLEAVARH [DNAAF3] | 2.13 ± 0.33 | 2.09 ± 0.19 | – | –
79 | AIMLLPDENREVLQTLLYFLSDVT [DLC1] | 2.12 ± 0.23 | 2.19 ± 0.13 | – | –
80 | MVWNQNGKSPSITFEYTLLQPPHE [ADAMTSL2] | 2.23 ± 0.27 | 2.64 ± 0.37 | – | –
81 | DSSFPPALAEGYRYPELDTPKLDC [TBX6] | 4.7 ± 0.25 | 4.72 ± 0.17 | – | –
82 | LRPSYTGLSSSSARFLSRSIPSLQ [CDC14A] | 3.04 ± 0.38 | 2.85 ± 0.29 | – | –
83 | QVDSLRPASFPTWGCDLGVVTRVV [BRF1] | 2.66 ± 0.11 | 2.5 ± 0.18 | – | –
84 | HFHPTVIGESMYGDFEEAFDHLQN [TENT5C] | 3.82 ± 0.064 | 3.9 ± 0.37 | – | –
85 | RSSVSRVFDCLKDGMRNKETLEGR [MED27] | 4.27 ± 0.34 | 4.38 ± 0.47 | – | –
86 | ESEDCKLPCNPCATTNASGNSCGP [KRT34] | 5.21 ± 0.12 | 5.25 ± 0.17 | – | –
87 | HSNGPTDLSMKGGASTTSTTPSAL [NOL4L] | 4.94 ± 0.19 | 4.94 ± 0.3 | – | –
88 | EKEAKDLTELVQRRITYLQNPKDC [FUT8] | 4.76 ± 0.17 | 4.9 ± 0.13 | – | –
89 | RDYVRLFGIKCAKCQVGFSSSDLV [ISL2] | 2.51 ± 0.52 | 2.25 ± 0.23 | – | –
90 | LQLLHECSPSQMDLLCAQLQLPQL [FANCE] | 2.33 ± 0.27 | 2.49 ± 0.11 | – | –

Reference: the supplement of paper PMC10567573
